Source: the supplement of paper PMC9170038

Test system: MS2 coat protein
Assay: apparent KD of MS2 coat protein; designed switch direction (-1 OFF switch, 1 ON switch): -1; higher = weaker reporter binding
Summary of the method: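 The reported apparent KD is a per-design median over clusters, from curve fits of normalised cluster fluorescence. Protein titrations used SNAP-549-labelled MS2 coat protein, doubled from 0.7 or 1.5 nM to 3 µM, in Tris-HCl pH 7.5 buffer with KCl, MgCl2, BSA, DTT, tRNA and Tween-20, with no input, 200 uM small-molecule ligand, or an oligonucleotide input. The RNA switches were transcribed on Illumina chips by stalled E. coli RNA polymerase.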

[1] = input ligand: microRNA oligo, concentration not stated
[2] = Eterna round: R95, input ligand: FMN 200 uM
[3] = Eterna round: R95, input ligand: microRNA oligo, concentration not stated
[4] = Eterna round: R95, input ligand: none

Row | Sequence | apparent KD of MS2 coat protein (input ligand: FMN 200 uM) [nM] | apparent KD of MS2 coat protein [1] [nM] | apparent KD of MS2 coat protein (input ligand: none) [nM] | apparent KD of MS2 coat protein [2] [nM] | apparent KD of MS2 coat protein [3] [nM] | apparent KD of MS2 coat protein [4] [nM]
1 | GGCUGACAUGUAGGAUAUCUGCACGAUUAGUGCAGAGAAGGACAUGAGGAUCACCCAUGUAUAGCGACUUCGGUCGCAACAGCC [ENG1/2-A1] (Eterna round: R96, puzzle: Exclusion NG 1) | 155 | 31 | 40 |  |  | 
2 | AGUCCUAACACGAAAGUGUUAGUACAAUAAGCUUGUGAAACAUGAGGAUCACCCAUGUCCUCAUAAGCUCGUCUUAU [salish99_TOv2_r3_015] (puzzle: Sensor v3, turn-off variant 2) |  |  |  | 16.6 | 896 | 16.9
3 | GCAGAUCAAGUGAGGAUAUGCUCUACCUCGGUAGAGCAGAAGGCACAUGAGGAUCACCCAUGUGAUUGAUCUGC [Omei Ex4B B5] (Eterna round: R97, puzzle: Brourd's mod of Exclusion 4) | 26.9 |  | 19.5 |  |  | 
4 | CCCAUGUCAGGAUAUUAAUUGGGCGGGAAAUCCCACCCACUUGAGAAGGGACAUGAGGAUCACCCAUGUAAAAC [Indila] (Eterna round: R97, puzzle: Exclusion 4) | 66.6 |  | 629 |  |  | 
5 | CCCGAACAUGAGGAUCACCCAUGUCAGGAUAUAUUGCAGUGCAGAGCGCGUGCUAAGGAUAGAAGGGACAUGAA [Eternabot (L2) Solution 62] (Eterna round: R97, puzzle: Exclusion 1) | 31.4 |  | 29 |  |  | 
6 | AAUAACAGAGGAUAUACUGUUUUAUGUGUUUGUUAUUUUAAACAUGAGGAUCACCCAUGUAGAAGGCUGAAUGA [JMF 57] (puzzle: Exclusion 2) |  |  |  |  | 22 | 
7 | ACAUGAGGAUCACCCAUGUGCACGUAAUGGCUCAUGUAGAGUGAGGAUAUGUGAGACGAACGAGAACAGAAGGCACAAGACAGG [Deportation 8 - Jieux - Exclusion NG 3] (Eterna round: R96, puzzle: Exclusion NG 3) | 106 | 92.8 | 116 |  |  | 
8 | GCGGAAAACUUAGGAUAUCAGGGCUGUACAUGAGGAUCACCCAUGUGAUAGCUCUAACACGGUCCUGAGAAGGGAGAGCCCGGA [Biorenen] (Eterna round: R96, puzzle: Exclusion NG 2) | 109 | 49.7 | 73 |  |  | 
9 | AAGAGCAGACGGAGAUCCAACAUGAGGAUCACCCAUGUCUCGCAAGCUUUUUGCUUGUCUUAUCCUCCUCUGUUCAC [Esquitian 4] (Eterna round: R97, puzzle: Sensor, turn-off variant 1) | 14.8 |  | 14.6 |  |  | 
10 | UGAGUGCUGCGAGGAUAUACAUGAGGAUCACCCAUGUAAUAGUGUGAGGCUUUGCCUCACACAAUGUAGAAGGCGCAGUACUCU [JL ENG2 1.02] (Eterna round: R96, puzzle: Exclusion NG 2) | 17.1 | 8.58 | 12.5 |  |  | 
11 | GAGUUAACGUGAGGAAUAUACAUGAGGAUCACCCAUGUUAACAAAUAUAUUGCUCGUCUUAUAACAACAAUUAACUC [Alarm 7 - Jieux - Sensor, turn-off variant 1] (Eterna round: R97, puzzle: Sensor, turn-off variant 1) | 22.9 |  | 22.8 |  |  | 
12 | UGCAUGCUAGGAUAUGCCGAGGAGAACAUGAGGAUCACCCAUGUGACCCGGAUGCCUUGAGCAGAAGGAGCUACUA [EX5 C.19] (Eterna round: R97, puzzle: Exclusion 5) | 22.4 |  | 15.2 |  |  | 
13 | CCUCGUUGGGAGGAUAUCCUUUAGAUUGGAGGAGGAGAAGGCUCGACAUGAGGAUCACCCAUGUGGGAUUUCCC [-24.6, -21.9 kcal, A 23%] (Eterna round: R97, puzzle: Exclusion 6) | 127 |  | 35.6 |  |  | 
14 | GCCGAUUAAGUCAGGAUAUACCUAUGGAUACAUAGGUAGAAGGGACAUGAGGAUCACCCAUGUUCCUCAUCGGC [Fiskers BMX 4 - 12] (puzzle: Brourd's mod of Exclusion 4) |  |  |  | 41.6 | 13.5 | 16.9
15 | CAUGAUUGGCGAGGAUAUUGACCUAGUUGGCGACGAGAAGGCGCCUGUCACAUGAGGAUCACCCAUGUGAAUCUGGUGAAAGAG [Ex NG1 #90] (Eterna round: R96, puzzle: Exclusion NG 1) | 23.9 | 16.1 | 22.8 |  |  | 
16 | CAAUAACAAGCAGGAUCCUACAUGAGGAUCACCCAUGUGCUCGUCUUAUAAAGUACUAUCACGAAAGUGAUAGUACA [Mat - Sensor v3 - turn-off var 1 - Eli Mod - D71] (puzzle: Sensor v3, turn-off variant 1) |  |  |  | 190 | 58.6 | 396
17 | UUAAUUAAUAAUUAAGAUCAUUACAUGAGGAUCACCCAUGUCGAGGAUAUCAGCUCGUUUAGAGCUGAGAAGGCGACAAAUUAU [ExNG3/13-B2] (Eterna round: R96, puzzle: Exclusion NG 3) | 670 | 411 | 473 |  |  | 

Row | Sequence | apparent KD of MS2 coat protein (input ligand: FMN 200 uM) [nM] | apparent KD of MS2 coat protein [1] [nM] | apparent KD of MS2 coat protein (input ligand: none) [nM] | apparent KD of MS2 coat protein [2] [nM] | apparent KD of MS2 coat protein [3] [nM] | apparent KD of MS2 coat protein [4] [nM]
18 | ACUAAUUGAGGAUAUACAAGAAUUAACAUGAGGAUCACCCAUGUUCUUAUUUGAAUUAAAGUAGAAGGCAGAAGAA [JR_Ex5_Sub063] (Eterna round: R97, puzzle: Exclusion 5) | 16 |  | 28.9 |  |  | 
19 | ACCAUUUCGGUGGUCUAAGAACAUGAGGAUCACCCAUGUAUCGAGGAUAUCCCAAGCAGACUAUGGGAGAAGGUGAACAGAAGG [Eternabot solution 24] (Eterna round: R96, puzzle: Exclusion NG 3) | 40.1 | 25.6 | 41.7 |  |  | 
20 | UGCAUCUGAGGAUAUCACAUGUGGAACAUGAGGAUCACCCAUGUGAUCCACAUGCCGUUGUGAGAAGGCAGUAAAA [Isteon] (puzzle: Exclusion 5) |  |  |  |  | 268 | 
21 | UUAAAUCAUGUAGGAUAUGCGUGGCAAAGCUAUGCAGAAGGACAUGAGGAUCACCCAUGUUCUAGCGUCUGCGUACAGAUGCUA [Mat - Exclusion NG 1 - Mod of JL - D77] (Eterna round: R96, puzzle: Exclusion NG 1) | 249 | 34.9 | 42.6 |  |  | 
22 | AAAAGUUAAGGAUAUACAGGGAGCCGCGGCGACUCGCCGCAACAUGAGGAUCACCCAUGUAGAAGGUAGCCAAA [Enbibi] (puzzle: Exclusion 2) |  |  |  |  | 23.7 | 
23 | AAAUAACUAGGAUAUCGAGGCACAGACAUGAGGAUCACCCAUGUGUGGUCUUCGUGCUUACGAGAAGGAGUACGGC [Teceri] (puzzle: Exclusion 5) |  |  |  | 55.6 | 168 | 83.3
24 | GUUAUGCGGCAGGAUAUCCAUCCGCGGUAUGAUGGAGAAGGGCCGACAUGAGGAUCACCCAUGUGCGUCCUAGG [jl-ex6-4.49 ViennaUCT mod] (Eterna round: R97, puzzle: Exclusion 6) | 155 |  | 53 |  |  | 
25 | GGUGCGUAUGUGAGGAUAUGCUGGUCCUUGGAUCCGCAGAAGGCACAUGAGGAUCACCCAUGUGGUGUCGUACC [salish99_Bmod_Ex4_022] (puzzle: Brourd's mod of Exclusion 4) |  |  |  |  | 139 | 
26 | AGUCGGUCAGGAUAUGCAAUUGUGGACAUGAGGAUCACCCAUGUAACGUGGGCCUGGUUUGUAGAAGGGACGUGCA [EX5 #89] (Eterna round: R97, puzzle: Exclusion 5) | 105 |  | 89 |  |  | 
27 | AUCUGCACGCUGCGGUCCUACAUGAGGAUCACCCAUGUGGUCUGGUGGCGUGGGUCGCCGGACUUGGCUCGUCUUGG [salish99_S_TOV1_R5_050] (Eterna round: R97, puzzle: Sensor, turn-off variant 1) | 15.4 |  | 15.2 |  |  | 
28 | CCGAGGUGGCGGUCCUAUGACAUGAGGAUCACCCAUGUACCUCGCCACGAGCUUUUUGCUCAUCUUAUAAUUCUCGG [Edbibice] (puzzle: Sensor v3, turn-off variant 1) |  |  |  | 17.2 | 18.9 | 16.6
29 | AAAAAGUUGAGAGGAUAUGGUGCCGAAACGGUGCUAGAAGGCUUUACAAAAAAACAUGAGGAUCACCCAUGUUCAUGUAGAGAA [AK ExNG1-1.1] (Eterna round: R96, puzzle: Exclusion NG 1) | 16.3 | 13.3 | 15.6 |  |  | 
30 | UUUUUUUUGCGAGGAUAUGCAUUUAGUUAGUUAGCAGAAGGCGCGUUUCUAUACUCCUCUUCGUACAUGAGGAUCACCCAUGUU [JR_ExcNG1_Sub032] (Eterna round: R96, puzzle: Exclusion NG 1) | 74.9 | 35.7 | 44.8 |  |  | 
31 | GGACCACAUGAGGAUCACCCAUGUCAGGAUAUGACGGCGUCGGCGAAAGCGGAGGCGGUCAGAAGGGACGGUAA [AK-MS2ROC-r4-exclusion1-10] (Eterna round: R97, puzzle: Exclusion 1) | 72.3 |  | 32.4 |  |  | 
32 | GAUCAUGCAGGAUAUACAGUUUCCAUGAAAACAUGGACCUCACAUGAGGAUCACCCAUGUAGAAGGGCAUGAUC [Omei Ex2 A27] (Eterna round: R97, puzzle: Exclusion 2) | 982 |  | 443 |  |  | 
33 | CUGAGGUAAGGAUAUAGGAGAGAAGAUAAGGUAUGAGAGUUCUAGAAGGUACAUGAGGAUCACCCAUGUUAGGG [JR_Exclu4_Sub087] (puzzle: Exclusion 4) |  |  |  |  | 252 | 
34 | UUUUAACAUGAGGAUCACCCAUGUGAGGAUAUCGAAAUUUAUAUUUAUAUUUAUAAUUCGAGAAGGCACAUUUU [JMF 93] (puzzle: Exclusion 1) |  |  |  |  | 181 | 
